Test results taken from patent US20210364527A1.

B1: PS611 (Bis-atClpS2-V1, Linker 3) (designed binder)
chain: MSDSPVDLKPKPKVKPKLERPKLYKVMLLNDDYTPMSFVTVVLKAVFRMSEDTGRRVMMTAHRFGSAVVVVCERDIAETKAKEATDLGKEAGFPLMFTTEPEEGSAGSAAGSGEFGSAGSAAGSGEFGSAGSAAGSGEFMSDSPVDLKPKPKVKPKLERPKLYKVMLLNDDYTPMSFVTVVLKAVFRMSEDTGRRVMMTAHRFGSAVVVVCERDIAETKAKEATDLGKEAGFPLMFTTEPEEGHHHHHHHHHHGGGSGGGSGGGSGLNDFFEAQKIEWHEGGGSGGGSGGGSGLNDFFEAQKIEWHE
B2: PS609 (Bis-atClpS2-V1, Linker 1) (designed binder)
chain: MSDSPVDLKPKPKVKPKLERPKLYKVMLLNDDYTPMSFVTVVLKAVFRMSEDTGRRVMMTAHRFGSAVVVVCERDIAETKAKEATDLGKEAGFPLMFTTEPEEGGGSGGGSGGGSGMSDSPVDLKPKPKVKPKLERPKLYKVMLLNDDYTPMSFVTVVLKAVFRMSEDTGRRVMMTAHRFGSAVVVVCERDIAETKAKEATDLGKEAGFPLMFTTEPEEGHHHHHHHHHHGGGSGGGSGGGSGLNDFFEAQKIEWHEGGGSGGGSGGGSGLNDFFEAQKIEWHE

Target: FA peptide (N-terminal phenylalanine, penultimate alanine; rest of sequence not given)
Experiment: fluorescence polarization

Binder | Kd [nM]
B1 | 137
B2 | 221
